Here are results for 2 molecules from patent US20250277032A1 (BIOND BIOLOGICS, published 2025).

This assay deals with T1, human ILT3 on the cell surface (recombinant human ILT3 exogenously overexpressed on HEK cells); ILT3 on THP-1 … (human, UniProt Q8NHJ6 22-448).
T1 construct: whole, on cells; also called membranal ILT3; hILT3
As to the kind of experiment: flow cytometry on HEK cells overexpressing recombinant human ILT3.

B1: 7A5 (antibody, V domains shown)
VH: EVKLVESGGGLVKPGGSLKLSCAASGFTFSSYAMSWVRQTPAKRLEWVATISSDGGNTYYTDSVKGRFTISRDNARNTLDLQMSSLRSEDTAMYYCARHDGRGALDYWGQGTSVTVSS
VL: DIQMTQTTSSLSASLGDRVTISCRASQDISNYLNWYQQKPDGTVKLLIYYTSRLHSGVPSRFSGSGSGTDYSLTISNLEQEDIATYFCQQGNTLPWTFGGGTKLEIK
notes: Hybridoma (mouse) antibody
Consider B1, for which the binding result is given as “binds”.

B2: 3F6 (antibody, V domains shown)
VH: EVKLVESGGGLVKPGGSLKLSCAASGFTFSSYAMSWVRQTPAKRLEWVAAITFGGGNTYYPDSVKGRFTISRDNARNTLYLQMSSLRSEDTAMYYCARHGDGNYDFYAMDYWGQGTSVTVSS
VL: DIVMTQSPSSLTVTAGEKVTMSCKSSQSLLNSGNQKNYLTWYQQKPGQPPKLLIYWASTRESGVPDRFTGSGSRTDFTLTISRVQAEDLAVYYCQNDYSYPLTFGAGTKLELK
notes: Hybridoma (mouse) antibody
On to B2, for which the binding result is “binds”.
